Measurements published in patent US20250215089A1 (HARBOUR BIOMED SHANGHAI, published 2025).
Where two headings read alike, the source gives them in different places.

Tests used:
[1] = biological target: T1, human CD40 (human, UniProt P25942 21-277); test: FACS, Raji cells
T1 construct: whole, on cells; also called hCD40; TNFRSF5
Method: The cells were incubated at 4° C. for 1 hours in the dark. After the incubation, the cells were rinsed twice by adding pre-chilled PBS at 100 μL/well, and centrifuged at 500 g at 4° C. for 5 minutes, and the supernatant was discarded. Then, a fluorescent secondary antibody (goat anti-human IgG (H+L) secondary antibody, Alexa Fluor® 488 conjugate, Invitrogen, #A11013, 1:1000 dilution) was added at 100 μL/well, and the cells were incubated at 4° C. for 30 minutes in the dark. The cells were washed twice with pre-chilled PBS at 200 μL/well, and centrifuged at 500 g at 4° C. for 5 minutes, and the supernatant was discarded. Finally, the cells were resuspended in pre-chilled PBS at 200 μL/well. The fluorescence signal values were read using a BD FACS CANTOII flow cytometer or ACEA NovoCyte flow cytometer, and the data were processed and analyzed using FlowJo v10 software (FlowJo, LLC).
(§1) Data processing and graphical analysis were performed using GraphPad Prism 8 software. The binding curve of the antibody to the target cell and parameters, such as EC₅₀ value were obtained by four-parameter nonlinear fitting.

[2] = biological target: T1, human CD40; test: cell-based or functional assay
[3] = biological target: T1, human CD40; test: cell-based or functional assay; remark: listed apart in the source
[4] = biological target: T2, human PD-L1 (human, UniProt Q9NZQ7 19-290); test: cell-based or functional assay
[5] = biological target: T2, human PD-L1; test: FACS, CHO-K1/hPD-L1 cells
Method: Specifically, the cells expressing PD-L1 were digested and resuspended in PBS buffer containing 2% BSA. The cells were adjusted to a cell density of 1×10⁶ cells/mL, respectively. The cells were seeded in a 96-well V-bottom plate (Corning, #3894) at 100 μL/well, and the antibody to be tested at 2×final concentration with 4-fold concentration gradient dilution was then added at 100 μL/well. The cells were incubated at 4° C. for 2 hours in the dark. After the incubation, the cells were rinsed twice by adding pre-chilled PBS containing 2% BSA at 100 μL/well, and centrifuged at 500 g at 4° C. for 5 minutes, and the supernatant was discarded. […] The cells were washed twice by adding pre-chilled PBS containing 2% BSA at 100 µL/well, and centrifuged at 500 g at 4° C. for 5 minutes, and the supernatant was discarded. Finally, the cells were resuspended in pre-chilled PBS buffer containing 2% BSA at 200 μL/well. The fluorescence signal values were read using a BD FACS CANTOII flow cytometer or ACEA NovoCyte flow cytometer, and the data were processed and analyzed using FlowJo v10 software (FlowJo, LLC).
as §1

T1 sequence (P25942 21-277): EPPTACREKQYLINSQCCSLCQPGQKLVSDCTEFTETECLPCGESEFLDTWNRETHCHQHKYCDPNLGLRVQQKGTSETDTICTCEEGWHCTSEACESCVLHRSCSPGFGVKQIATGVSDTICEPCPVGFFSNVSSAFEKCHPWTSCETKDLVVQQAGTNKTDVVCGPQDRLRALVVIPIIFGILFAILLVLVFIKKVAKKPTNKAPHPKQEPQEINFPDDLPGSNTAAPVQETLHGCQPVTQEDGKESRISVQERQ
T2 sequence (Q9NZQ7 19-290): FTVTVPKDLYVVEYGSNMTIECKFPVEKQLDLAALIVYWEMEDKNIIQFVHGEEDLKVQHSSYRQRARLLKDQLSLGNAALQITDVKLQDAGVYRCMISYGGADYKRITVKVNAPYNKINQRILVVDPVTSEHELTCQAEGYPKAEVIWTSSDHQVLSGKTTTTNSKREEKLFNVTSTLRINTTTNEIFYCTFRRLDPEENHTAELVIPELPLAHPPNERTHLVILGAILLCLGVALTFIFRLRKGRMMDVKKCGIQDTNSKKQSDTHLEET

EC50 [1] | Maximum MFI [1] | EC50, HEK293-hCD40-NFκB reporter, crosslinked [3] | EC50, HEK293-hCD40-NFκB reporter, uncrosslinked [3] | Fold (EC50 in the absence of crosslinking/EC50 in the presence of crosslinking) [3] | Maximum fold, HEK293-hCD40-NFκB reporter, crosslinked [3] | Maximum fold, HEK293-hCD40-NFκB reporter, uncrosslinked [3] | Binder | further results
0.0699 nM | 3700 MFI | – | – | – | – | – | PR003379 (antibody, human IgG2, kappa, V domains shown, also called clone 18C4A12-1B1) VH: QVQLVQSGAEVKKPGASVKVSCKASGYTFAGYYMYWVRQAPGQGLEWMGWINPDSGAPTYAQKFQGRVTMTRDTSISTAYMELSRLRSDDTAVYYCAREKIYYGSGNYYPSFDYWGQGTLVTVSS VL: DIQLTQSPSFLSASVGDRVTITCRASQGISSYLAWYQQKPGKAPKLLIYAASTLQSGVPSRFSGSGSGTEFTLTISSLQPEDFATYYCQQLNSYPWTFGQGTKVEIKR | EC50, HEK293-hCD40-NFκB reporter, crosslinked (CHO-K1/hCD32B) [2]: 0.178 nM; EC50, HEK293-hCD40-NFκB reporter, uncrosslinked (CHO-K1) [2]: 0.369 nM; Fold (EC50 in the absence of crosslinking/EC50 in the presence of crosslinking) [2]: 2.07 fold
0.356 nM | 8870 MFI | 0.109 nM | 0.905 nM | 8.28 fold | 5.54 fold | 4.92 fold | PR006495 (antibody, human IgG1, kappa, V domains shown, Variant of PR003379, L: N92A; human IgG1 L234A, L235A, G237A) VH: QVQLVQSGAEVKKPGASVKVSCKASGYTFAGYYMYWVRQAPGQGLEWMGWINPDSGAPTYAQKFQGRVTMTRDTSISTAYMELSRLRSDDTAVYYCAREKIYYGSGNYYPSFDYWGQGTLVTVSS VL: DIQLTQSPSFLSASVGDRVTITCRASQGISSYLAWYQQKPGKAPKLLIYAASTLQSGVPSRFSGSGSGTEFTLTISSLQPEDFATYYCQQLASYPWTFGQGTKVEIKR | –
0.252 nM | 9200 MFI | 0.158 nM | 0.479 nM | 3.03 fold | 4.77 fold | 4.61 fold | PR006497 (antibody, human IgG1, kappa, V domains shown, Variant of PR003379, L: N92Y; human IgG1 L234A, L235A, G237A) VH: QVQLVQSGAEVKKPGASVKVSCKASGYTFAGYYMYWVRQAPGQGLEWMGWINPDSGAPTYAQKFQGRVTMTRDTSISTAYMELSRLRSDDTAVYYCAREKIYYGSGNYYPSFDYWGQGTLVTVSS VL: DIQLTQSPSFLSASVGDRVTITCRASQGISSYLAWYQQKPGKAPKLLIYAASTLQSGVPSRFSGSGSGTEFTLTISSLQPEDFATYYCQQLYSYPWTFGQGTKVEIKR | –
0.386 nM | 11800 MFI | – | – | – | – | – | PR006511 (antibody, human IgG1, kappa, V domains shown, Variant of PR003379, L: S93N; human IgG1 L234A, L235A, G237A) VH: QVQLVQSGAEVKKPGASVKVSCKASGYTFAGYYMYWVRQAPGQGLEWMGWINPDSGAPTYAQKFQGRVTMTRDTSISTAYMELSRLRSDDTAVYYCAREKIYYGSGNYYPSFDYWGQGTLVTVSS VL: DIQLTQSPSFLSASVGDRVTITCRASQGISSYLAWYQQKPGKAPKLLIYAASTLQSGVPSRFSGSGSGTEFTLTISSLQPEDFATYYCQQLNNYPWTFGQGTKVEIKR | –
0.277 nM | 9300 MFI | 0.217 nM | 0.43 nM | 1.98 fold | 5.03 fold | 4.43 fold | PR006496 (antibody, human IgG1, kappa, V domains shown, Variant of PR003379, L: N92F; human IgG1 L234A, L235A, G237A) VH: QVQLVQSGAEVKKPGASVKVSCKASGYTFAGYYMYWVRQAPGQGLEWMGWINPDSGAPTYAQKFQGRVTMTRDTSISTAYMELSRLRSDDTAVYYCAREKIYYGSGNYYPSFDYWGQGTLVTVSS VL: DIQLTQSPSFLSASVGDRVTITCRASQGISSYLAWYQQKPGKAPKLLIYAASTLQSGVPSRFSGSGSGTEFTLTISSLQPEDFATYYCQQLFSYPWTFGQGTKVEIKR | –
0.35 nM | 12200 MFI | – | – | – | – | – | PR006504 (antibody, human IgG1, kappa, V domains shown, Variant of PR003379, L: N92V; human IgG1 L234A, L235A, G237A) VH: QVQLVQSGAEVKKPGASVKVSCKASGYTFAGYYMYWVRQAPGQGLEWMGWINPDSGAPTYAQKFQGRVTMTRDTSISTAYMELSRLRSDDTAVYYCAREKIYYGSGNYYPSFDYWGQGTLVTVSS VL: DIQLTQSPSFLSASVGDRVTITCRASQGISSYLAWYQQKPGKAPKLLIYAASTLQSGVPSRFSGSGSGTEFTLTISSLQPEDFATYYCQQLVSYPWTFGQGTKVEIKR | –
– | – | – | – | – | – | – | PR000960 (antibody, human IgG1, V domains shown, Fully human heavy-chain-only antibody (HCAb): VH fused to human IgG1 Fc; no light chain) VH: QVQLVESGGGVVQPGMSLRLSCAASGFNFSNYGMYWVRQAPGKGQEWVAIIWYDGTKKHYADSVKGRFTISRDNSKNTLYLEMNSLRVEDTAVYYCAKNRAIFGVVPDASDIRGQGTMVTVSS | EC50, Jurkat-NFAT-hPD1 reporter [4]: 0.31 nM; Maximum (RLU), Jurkat-NFAT-hPD1 reporter [4]: 18400 RLU; EC50 [5]: 0.79 nM; Maximum MFI [5]: 23700 MFI
